Assay results taken from the supplement of paper PMC12455559.
± gives the standard deviation of the averaged measurements.

Key:
[1] = PET hydrolysis, aromatic products released after 48 h (umol product/mg enzyme); higher = more PET depolymerization activity
How it was run: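 The measure of PET hydrolysis activity is aromatic product released into the supernatant, given per mg enzyme. Nickel-purified, SUMO-cleaved enzyme without tag was added at 5 μg (50 μL) to 3.5 mg amorphous PET film or crystalline PET powder in 450 μL of citrate, phosphate or glycine buffer spanning pH 4.5 to 8.5. After 48 h at 40 or 60 °C in sealed plates without shaking, absorbance at 260 and 280 nm was taken against buffer blanks.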

[2] = melting temperature (DSF); higher = more thermostable
How it was run: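 Candidate enzymes were expressed in E. coli C41(DE3), purified on nickel beads and released by SUMO protease cleavage. For differential scanning fluorimetry, 45 μL enzyme (0 to 0.3 mg/mL) was mixed with 5 μL 5X Sypro Orange in sealed PCR plates on a Bio-Rad CFX96 instrument. Fluorescence was read from 25 °C in steps of 0.3 °C per cycle (ramp 0.3 °C/s) for 250 cycles. The read-out is melting temperature.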

[3] = purified protein yield per well (BCA); higher = higher soluble expression
How it was run: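 Candidate enzymes were made in 2 mL autoinduction cultures of E. coli C41(DE3) with 100 µg/mL kanamycin, at 37 °C for 2 h and then 18 °C for 40 h, and purified with Ni-charged magnetic beads and SUMO protease cleavage. The Pierce Rapid Gold BCA kit gave purified protein yield per well. Values lower than 25 ug (0.1 mg/mL) are below the detection threshold.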

[4] = substrate: aFilm, 40 °C, pH 4.5
[5] = substrate: aFilm, 40 °C, pH 5.5
[6] = substrate: aFilm, 40 °C, pH 6.5
[7] = substrate: aFilm, 40 °C, pH 7.5
[8] = substrate: aFilm, 60 °C, pH 4.5
[9] = substrate: aFilm, 60 °C, pH 5.5
[10] = substrate: aFilm, 60 °C, pH 6.5
[11] = substrate: aFilm, 60 °C, pH 7.5
[12] = substrate: cryPow, 40 °C, pH 4.5
[13] = substrate: cryPow, 40 °C, pH 5.5
[14] = substrate: cryPow, 40 °C, pH 6.5
[15] = substrate: cryPow, 40 °C, pH 7.5
[16] = substrate: cryPow, 60 °C, pH 4.5
[17] = substrate: cryPow, 60 °C, pH 5.5
[18] = substrate: cryPow, 60 °C, pH 6.5
[19] = substrate: cryPow, 60 °C, pH 7.5

Row | Sequence | PET hydrolysis [1, 4] | PET hydrolysis [1, 5] | PET hydrolysis [1, 6] | PET hydrolysis [1, 7] | PET hydrolysis [1, 8] | PET hydrolysis [1, 9] | PET hydrolysis [1, 10] | PET hydrolysis [1, 11] | PET hydrolysis [1, 12] | PET hydrolysis [1, 13] | PET hydrolysis [1, 14] | PET hydrolysis [1, 15] | PET hydrolysis [1, 16] | PET hydrolysis [1, 17] | PET hydrolysis [1, 18] | PET hydrolysis [1, 19] | melting temperature [2] [C] | purified protein yield per well [3] [µg] | PET hydrolysis ([1]; substrate: cryPow, 40 °C, pH 8.5)
1 | MNAVGPTTPPTTTPPTTPAGDNPYQRGPDPTVASVAAQYGPFATAQITVPPGNGFNGGFIYYPTDSSHTYGAVAIVPGYTALFADEEAWMGPRLASFGFVVIGVETNSRTDYDTARGTQLLAALDYLTNSSAVRDRVDRNRLAVIGHSMGGGGALYAATQRPSLKAAIGLAPFKPSGNLASDTVPTMIIGGINDTTVTPSYLDGLYPTLPAATPGAYLQLANADHLYFTRPNDIEMRSQIEWLKIFVDNDTRYTPFLCPSIKDTTGIVRSNVKCSTIPGGGSTSPPTTTPPPAGSNRIVGAQSGRCVDVPGASQTNGTRVQLYDCNGQPNQAWTLTASKQLTVYGSRCLDAAGSGNGSAVQIYSCNGQANQQWNVNANGTITGVQSGRCLDVWGTGNGQQVQIYDCNGQANQRFGLS [ESM052] | 4.5 ± 0.71 | 7.5 ± 0.71 | < 3 | < 3 | < 3 | < 3 | < 3 | < 3 | 13.5 ± 2.1 | 28.5 ± 2.1 | 36.5 ± 3.5 | 17.5 ± 7.8 | < 3 | 7.5 ± 0.71 | 5.5 ± 0.71 | < 3 | 61.6 | 248 | 
2 | MPPPDSGAAAHERVHAEPSDPATVGSAGGNPFARGPDPTLASVAAEFGPFATTQLSVPPGHGFNGGYVYYPTDASPTFGAVAIVPGYTALFADEEAWMGPRLASFGFVVIGIETNSREDWDRARGAQLLAALDYVTQHSTVRTRVDSSRLAVIGHSMGGGGAFAAATRRPSLKAVVGLAPYFPSGDLATVRVPTLIIGGQRDTTVTPSYLDDLYATLPTRTPSAYLMLADADHLFPTRPNPVEMRLLIPWLKIFVDRDTRYVRFLCPLADRSGIAQYRVTCPLVPPA [TEP003] |  |  |  |  |  |  |  |  | < 3 | < 3 | < 3 | < 3 | < 3 | < 3 | < 3 | < 3 | 67.6 | 152 | 
3 | MPPPPPPPPPVQTVTVEPGYGFGGGTIYYPQESTGRLPVVAAVPGFTETQEAVAWYGPLLARRGNIVITIDTISPTNAPKTRADQALAAIDYVVTQSAVSDIADASRTAVMGHSMGGGASLFAALKRPTLKAIVPLAPWARTTDFSGVAVPTLIVGCENDGIAAVGTYAEPFYESIPATTPKAYLEMAGGNHYCTNSEDPVIAGYVSAWTDRFLKGDTTASSRLCPPSPVGPISEYRSNCPY [TEP189] |  |  |  |  |  |  |  |  | < 3 | 8 | 56 | 62 | < 3 | < 3 | 23 | 22 | 67 | 153 | 
4 | MRPGRVCPDSCGCRPSSRRKDATIVQQLRNETIGSPSPHRAPRRFRPRLVRAGLAALLAAGGLFTAQSGSAGAAQNPYERGPAPTVSSIEAPRGPYAVSETRVSSLGVTGFGGGTLYYPTTTRDGTFGAVAISPGYGGTQSSISWLGPRLASQGFVVFTIDTLSTLDQPAGRGGQLLAALDYLTQRSSVRDRVDSGRLGVMGHSMGGGGSLEAAKSRPALQAAIPLTGWNLDKTWQELRTPTLVVGADGDTIAPVSSHSEPFYESLAGSLDKAYLELNGASHFTPNSSNTTIAKYSVSWLKRFIDNDLRYEQFLCPLPRPGATIEEYRGNCPHTS [TEP099] |  |  |  |  |  |  |  |  | < 3 | < 3 | < 3 | < 3 | < 3 | < 3 | < 3 | < 3 | 50.2 | 68.5 | 
5 | NPYERGPAPTTSSIEASRGSFATSTTTVSRLAVSGFGGGTIYYPTSTASGTFGAVSIAPGFTATQSSMAWLGPRLASQGFVVFTIDTITTSDQPDSRGRQLLSSLDYLTQQSSVRSRIDSSRLGVVGHSMGGGGTLEAARSRPSLQAAVPLTGWNLTKSWSTVRVPTLVVGAQADTVAPVASHSIPFYTSLPSSLDKAYLELRGASHFAPNSANTTIAKYTLSWLKRFIDDDTRYEQFLCPIPGTSTTISDYRGNCPHAG [ESM140] |  |  |  |  |  |  |  |  | < 3 | 5 | 22 | 33 | < 3 | 4 | 8 | 9 | 51.7 | 187 | 
6 | NPYERGPDPTTASIEASRGSFATSTVTVSRLAVSGFGGGTIYYPTTTTAGTFGAISIAPGFTATQSSMAWLGPRLASQGFVVFTIDTITTSDQPDSRGRQLLASLDYLTQQSSVRSRIDSSRLGVVGHSMGGGGTLEAARSRPSLQAAVPLTGWNLTKNWSTLRVPTLVVGAQSDTIAPVASHSIPFYTSLPSTLDRAYLELRGASHFAPNTSNTTIAKYTLSWLKRFIDNDTRYEQFLCPIPSSSLSISDYRGNCPHNG [ESM167] | < 3 | 4 | 6.5 ± 0.71 | 7.5 ± 0.71 | < 3 | < 3 | 2 ± 2.8 | 2.5 ± 3.5 | 2 ± 2.8 | 12.5 ± 2.1 | 21 ± 4.2 | 35.5 ± 0.71 | < 3 | 10.5 ± 2.1 | 20 ± 1.4 | 26 ± 1.4 | 55.3 | 254 | 
7 | QAPDRTALARTGPYQVAYYTQLPPAAEFSAATLFFPANKAQAFGGVVIAPGYTEKQVNVQWWGYHLASHGYAVLVLDTNDPEEYPDRRADALMAGVAVLRGENTRMGSTLRGKILEGRIALMGHSMGGGGTLLAANGHSDQLKTIIPFTPWLPGADFSAVSVPTLVLAGEIDRIAAVKDHAWPHYESLTGAVPRMYLEVKGGNHYIANSMTDREDRNPNIDVHDLVGSMVVAWLKTFLDDDESYRELVFGDLPEADRVRISRLEFVE [TEP006] | < 3 | < 3 | < 3 | < 3 | < 3 | < 3 | < 3 | < 3 | < 3 | < 3 | < 3 | < 3 | < 3 | < 3 | < 3 | < 3 | 53.5 | 215 | 
8 | QDNSQGRYRPEGRQIGVAAGREFGERIYEVRTYETNPGIAEFADVMVFYPLTLSFDRPNGAIAFSPGFRAAADNYEWWGPALASLGYNVFILNTNEPTDDLDARADALAALVDFIKAENANPDSPVANKIDEEKIALMGHSMGGGAALAAADRLGDAVGAVIPLALYCCNPGGSFEGDYGSLSAAALVIASAEDTVAPPEAHARLLYDSLGSENKIYMEFAAGDHMFPANGGPELATMGRFTLAFLKAYLDGVAGLEQHVTSPSDEYAERFSTYLAP [TEP035] |  |  |  |  |  |  |  |  | < 3 | < 3 | < 3 | < 3 |  |  |  |  | 52.3 | 51.6 | 
9 | QPTLESLGNPGPYQVAYYDQLPEVDEYGAATLYFPANRGTDFGGVAIAPGFIEQQENIEWWGRHLASYGFAVLVLDTNNPRDDPQVRSEALLAALDVIRGEGARSGSPIRGKILNDRMAVMGHSMGGGGTLLAANRASDQLKAIIPFTPWLPNADFSSVAVPTLVLAGEVDRIASVAEHAWPHFQTLPEGIPRMYVEIAGGNHFIANSTTDQERLNPNIDVHDLVGALGVAWLKYFVDGDEDYRDLIYGELPAEQRARLSRFEFVQ [TEP107] |  |  |  |  |  |  |  |  | < 3 | < 3 | < 3 | < 3 | < 3 | < 3 | < 3 | < 3 | 44.5 | 57.2 | 
10 | QSAEASPPHGPDPTEESITAPRGPFEIDQKTVSRASVRGFGGGTIYYPTDTSEGTFSAVAIAPGYTAGQESLAWLGPRLASQGFVVFTIDTLTRYDQPDSRSRQLLAALDHLTDDSDVADRVDPARRGVMGHSMGGGGSLQAALDDPDLKAAIPMTPWHTTKDFSGVRTPTLIIGAQNDTVAPVSQHAKPFYESLPDDPGKAYLELAGASHFAPNVDNTTIARYSIAWLKRFLDDDTRYEQFLCPPPPDPAISDHQSTCPY [TEP105] | < 3 | < 3 | 5 ± 1.4 | 7.5 ± 0.71 | < 3 | < 3 | < 3 | 10 ± 4.2 | < 3 | 15.5 ± 0.71 | 46.5 ± 0.71 | 59.5 ± 0.71 | < 3 | 10.5 ± 0.71 | 101 ± 1.4 | 118 ± 13 | 61.6 | 207 | 
11 | QSPSAAANPYERGPDPTVSSVAAQRGTFATAEVTVPPGNGFNGGKIYYPTDTSLGTWGAVAAVPGYTARWSAEGAWMGPWLASFGFVVIGIDTNSPNDFDTARGTQLLAALDYLTQKSPVRDRVDPSRLGVIGHSMGGGGAISAAERRPSLKAALPLAPFSPSQNLSSLRVPTMIMGARDDGTVTPSYLDGLYGGMPATTQSAYIELTGGGHGFPTWGNSNVTRRTIPWLKIFLDNDTRYTQFLCPSPADRTGVSRSQTKCPYVPPGTTTPPPSGGQIVGAGSGRCLDVPNASQTNGTQLQLWDCSANANQKWARTGTGELRVYGNKCLDAEGAGTSPGTRVIIWDCHGGQNQRWNVNTSGTITRADPVCAWTRKATAPGTAPRRSWGTAMAGPASAGPSGSED [TEP122] |  |  |  |  |  |  |  |  | < 3 | < 3 | < 3 | < 3 | < 3 | < 3 | < 3 | < 3 | 54.1 | 186 | 
12 | QSSNPYQRGPAPTERSIEASRGPFAVAQTTVSRLSATGFGGGTIYYPTDTSQGRFGGVAISPGFTALQSSIAWLGPRIASQGFIVFTIDTITTLDQPAQRGDQLLAALDYLVQRSPAAVRDRLDPTRLAVMGHSMGGGGTLEAAKKRPSLKAAIPLTGWNLDTIWNDLRVPTLVVGAQLDLIAPILTFSLPFYNTIPASTEKVYLELAGASHFAPNLPDTNIAKYSIAWLKRWVDNDTRYTQFLCPGPRFELAISNYMSSCPM [DP056] |  |  |  |  |  |  |  |  |  | < 3 | < 3 | 4 |  |  |  |  | 56.2 | 36 | 6
13 | QSSSAAANPYERGPAPTVSSVAAQRGTFATAEVTVPPGNGFNGGKIYYPTDTSLGTWGAVAAVPGYTARWSAEGAWMGPWLASFGFVVIGIDTNSPNDYDTARGTQLLAALDYLTRKSPVHDRVDPNRLGVIGHSMGGGGAISAAERRPSLKAAVPLAPFSPSQNLSSLRVPTMIMGARDDGTVTPSYLDGLYSGMPAATQSAYIELTSGGHGFPTWGNSHVTRRAIPWLKIFLDNDTRYTQFLCPSPADSREVSRSQTKCPYVPPGGTTTPPSGEQIVGAASGRCLDVVNSSQTSGAQAHPWDCADRPGQKWARTDAGELRVYSNKCLDAEASGTSAGTRVVIWACHGRQNQRWNVNANGTITSVPSGLCLDTYNGGTGNGAQSVLGNCNGASTQRWTLR [TEP086] | < 3 | < 3 | < 3 | < 3 | < 3 | < 3 | < 3 | < 3 | < 3 | < 3 | < 3 | < 3 | < 3 | < 3 | < 3 | < 3 | 56.8 | 385 | 
